US20230270875A1, “METHODS OF USING ANTI-CD79B IMMUNOCONJUGATES” (Genentech, Inc., priority 2020, published 2023)

Key:
[1] = system: patients with relapsed or refractory follicular lymphoma (R/R FL); experiment: Phase Ib/II study, FL dose-escalation phase: safety (adverse events, DLTs, RP2D) of G+Pola+V; assay type: in vivo; conditions: in combination with venetoclax 800 mg and obinutuzumab 1000 mg
Description: This Example describes a Phase Ib/II study evaluating the safety and efficacy of obinutuzumab (G) in combination with polatuzumab vedotin (Pola) and venetoclax (V) in patients with relapsed or refractory follicular lymphoma (R/R FL) and rituximab (R) in combination with polatuzumab vedotin and venetoclax in patients with relapsed or refractory diffuse large B-cell lymphoma (R/R DLBCL).
This Phase Ib/II, open-label, multicenter, non-randomized study evaluated the safety, efficacy, and pharmacokinetics of obinutuzumab (G)+Polatuzumab vedotin (Pola)+venetoclax (V) in patients with R/R FL and rituximab (R)+Pola+V in patients with R/R DLBCL.
This dose-escalation phase included FL patients only.
All patients enrolled in the dose-escalation phase received induction treatment, administered in 21-day cycles as shown in Table 1. […]
The observation period was based on evaluation of dose-limiting toxicities (DLTs) in cycle 1. […] If no additional DLTs were reported, the next dose could be evaluated. […]
Adverse events are assessed according to the adverse event severity grading scale for the NCI CTCAE (v4.0). […]
Laboratory assessments and adverse events (AEs) were assessed throughout the study, with complete blood counts performed on days 1, 8, and 15 of cycle 1, on day 1 of cycles 2-6, and monthly during maintenance treatment. […]

patients with R/R NHL = conditions: human, in vivo; cited from earlier work

Row | Substance | Recommended Phase II dose (RP2D) [1] [mg/kg] | Incidence of Grade 3-4 neutropenia (patients with R/R NHL) [%]
1 | polatuzumab vedotin: anti-CD79b immunoconjugate, CAS Registry Number 1313206-42-6; humanized antibody conjugated to MMAE via mc-val-cit-PABC linker | 1.8 | –
2 | obinutuzumab | – | 5
